No end group written: not given here.
What was measured:
[1] = molecular target: HER2蛋白 (表达HER2蛋白的细胞) (UniProt P04626); experiment: flow cytometry on cells expressing HER2, against the blank control without antibody
[2] = molecular target: HER2蛋白 (表达HER2蛋白的细胞) (UniProt P04626); experiment: flow cytometry on 1×10^6 cells expressing HER2, 0.5 μg antibody, Alexa Fluor 488 goat anti-rabbit secondary
[3] = molecular target: T1, HER2抗原合成多肽 (SEQ ID No.1) (not fully specified; also: coupled to KLH or OVA for immunisation); experiment: ELISA screening of hybridoma clones on the HER2 antigen (SEQ ID NO.1)
T1 construct: It was coupled to KLH or OVA for immunisation; also called HER2的多肽
T1 peptide: PTAENPEYLGLDVPV

B1: 246G0D3抗HER2重组兔单克隆抗体 (antibody, V domains shown)
VH: QSVEESGGRLVTPGTPLTLTCTVSGFSLSSYAMSWVRQAPGKGLEYIGIIRSSGSTYYASWAKGRFTISKTSTTVDLKLTSPTSEDTATYFCCRGSPGSGSGYSVLWGQGTLVTVSS
VL: AAVLTQTPSPVSAAVGGTVSISCQSSKSVYNNNCLAWYQQKPGQPPKLLIYGASTLASGVPSRFKGSGSGTQFTLTISDVQCDDAATYYCAGGYTDDSDDGFGGGTEVVVK
notes: also called 246G0D3抗体; 246G0D3抗HER2单克隆抗体
[1]
  fold MFI against the blank control: 251 倍
[2]
  MFI: 2480
[3]
  binding result: binds
